Results reported in US20240174744A1 (SCIRHOM, published 2024).
Positions count from the first letter of the chain named.

T1: human iRhom1, endogenously expressed on RH-30 cells (human, UniProt Q96CC6 1-855)
T1 construct: RH-30 cells are described as endogenously negative for iRhom2 but endogenously expressing iRhom1; also called NP_071895.3
T1 sequence: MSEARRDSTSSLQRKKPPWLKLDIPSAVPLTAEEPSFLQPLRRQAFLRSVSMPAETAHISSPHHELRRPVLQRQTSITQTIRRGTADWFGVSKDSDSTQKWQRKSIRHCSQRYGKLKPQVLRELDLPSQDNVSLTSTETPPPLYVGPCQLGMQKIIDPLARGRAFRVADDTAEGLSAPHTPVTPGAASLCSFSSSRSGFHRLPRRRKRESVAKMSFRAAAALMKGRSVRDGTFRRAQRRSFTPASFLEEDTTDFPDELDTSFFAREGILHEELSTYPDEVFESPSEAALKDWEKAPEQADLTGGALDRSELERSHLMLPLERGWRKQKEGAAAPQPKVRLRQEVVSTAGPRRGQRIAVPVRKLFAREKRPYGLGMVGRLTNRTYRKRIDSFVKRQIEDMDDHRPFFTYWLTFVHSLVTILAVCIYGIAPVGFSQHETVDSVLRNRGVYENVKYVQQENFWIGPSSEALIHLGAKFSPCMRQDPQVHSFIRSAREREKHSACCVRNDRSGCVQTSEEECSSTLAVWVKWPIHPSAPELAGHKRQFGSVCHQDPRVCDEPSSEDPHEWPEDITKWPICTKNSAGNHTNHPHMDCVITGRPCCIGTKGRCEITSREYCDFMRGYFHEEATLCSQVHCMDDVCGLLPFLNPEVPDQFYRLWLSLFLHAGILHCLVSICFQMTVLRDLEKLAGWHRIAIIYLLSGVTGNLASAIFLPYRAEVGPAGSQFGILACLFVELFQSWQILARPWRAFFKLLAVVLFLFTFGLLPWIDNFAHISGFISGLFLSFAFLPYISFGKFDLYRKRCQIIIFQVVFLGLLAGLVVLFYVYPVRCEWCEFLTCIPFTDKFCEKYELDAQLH

T2: hiR2-FL-K536A-T7 (human iRhom2 full length K536A, 3 x T7 tag) (human, UniProt Q6PJF5 1-856)
T2 sequence: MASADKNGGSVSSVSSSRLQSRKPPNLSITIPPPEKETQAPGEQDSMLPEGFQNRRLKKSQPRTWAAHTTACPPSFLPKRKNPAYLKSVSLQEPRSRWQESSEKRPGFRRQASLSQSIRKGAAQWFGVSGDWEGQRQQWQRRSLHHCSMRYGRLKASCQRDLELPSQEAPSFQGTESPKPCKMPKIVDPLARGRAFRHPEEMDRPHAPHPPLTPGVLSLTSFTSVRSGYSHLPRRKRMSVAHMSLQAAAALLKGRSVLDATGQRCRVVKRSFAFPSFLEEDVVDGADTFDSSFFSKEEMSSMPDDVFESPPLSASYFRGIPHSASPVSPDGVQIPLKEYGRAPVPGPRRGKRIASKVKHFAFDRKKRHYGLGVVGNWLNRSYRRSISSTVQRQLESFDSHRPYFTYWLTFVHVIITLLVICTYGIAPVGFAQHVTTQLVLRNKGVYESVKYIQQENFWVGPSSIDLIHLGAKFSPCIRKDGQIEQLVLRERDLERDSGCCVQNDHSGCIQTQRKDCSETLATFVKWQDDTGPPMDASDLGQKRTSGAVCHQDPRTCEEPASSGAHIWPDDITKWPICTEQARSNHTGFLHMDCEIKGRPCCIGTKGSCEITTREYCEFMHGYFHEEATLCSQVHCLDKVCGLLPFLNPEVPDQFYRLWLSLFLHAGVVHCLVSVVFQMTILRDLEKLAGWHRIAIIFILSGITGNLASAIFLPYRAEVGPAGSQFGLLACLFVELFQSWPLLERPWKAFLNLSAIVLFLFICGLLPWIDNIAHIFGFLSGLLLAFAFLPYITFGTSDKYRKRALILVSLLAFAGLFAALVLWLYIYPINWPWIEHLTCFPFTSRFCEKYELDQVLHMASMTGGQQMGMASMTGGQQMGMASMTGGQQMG

B1: antibody 16 (antibody, V domains shown)
VH: QVTLKESGPGILQPSQTLSLTCSFSGFSLSTFALGVGWIRQPSGRGLEWLAHIWWDDDKYYNPALKSRLTISKDTSKNHVFLKIANVDTADTATYYCARITTYYYGMDYWGQGTSVTVSS
VL: DIVLSQSPATLSVTPGDSVSLFCRASQSIGNHLHWYQQESHASPRLLIKYASQSISGIPSRFSGSGSGTDFTLSINSVETEDFGMYFCQQSYNWPLTFGAGTKLELK
notes: Mouse IgG, kappa light chain; also called clone #16; m16
B2: antibody 5 (antibody, V domains shown)
VH: QVTLKESGPGILQPSQTLSLTCSFSGFSLSTFGMGVGWIRQPSGKGLEWLAHIWWDDEKYYNSALKSRLTISKATSKNQAFLKIANVDTADTATYYCARISNYGSNYWYFNVWGTGTTVTVSS
VL: QVVLTQSPALMSASPGEKVTMTCSAGSSVSCMYWYQQKPGSSPRVLIYDTSNLASGVPARFTGSGSGTSYSLTISRMEAEDAASYYCQQWNSYPLTFGAGTKLELK
notes: Mouse IgG, kappa light chain; also called clone #5; purified antibody 5
B3: antibody 42 (antibody, V domains shown)
VH: B2 VH with F24L, M34R, S63P, A74D, A80V, K83R, S101Q, N111D
VL: LIVLTQSPAIMSASPGEKVTMTCGATSRISYMFWYQQKPGSSPRVLIYDTSNLASGVPVRFSGSGSGTSYSLTISRVEAEDVATYYCQQWNSYPLTFGAGTKLELK
notes: Mouse IgG, kappa light chain; also called clone #42; m42
B4: antibody 22 (antibody, V domains shown)
VH: B2 VH with A80V
VL: B2 VL with C31Y, S84T
notes: Mouse IgG, kappa light chain; also called clone #22; m22

Legend:
[1] = target: T1, human iRhom1, endogenously expressed on …; assay: FACS on RH-30 cells (iRhom1-positive, not iRhom2-positive)
[2] = target: T2, hiR2-FL-K536A-T7 (human iRhom2 full …); assay: FACS on MEF-DKO-hiR2-FL-K536A-T7 cells, PE anti-mouse IgG F(ab')2 detection
[3] = target: T1, human iRhom1, endogenously expressed on …; assay: FACS, RH-30 cells (endogenous iRhom1, no iRhom2)
Experimental: In brief, human RPMI-8226 cells (Deutsche Sammlung von Mikroorganismen und Zellkulturen, Germany), THP-1 cells (American Type Culture Collection, USA) and RH-30 cells (Deutsche Sammlung von Mikroorganismen und Zellkulturen, Germany) were harvested with 10 mM EDTA in PBS, washed and resuspended in FACS buffer (PBS, 3% FBS, 0.05% sodium azide), and seeded in Nunc U-bottom 96-well plates (Thermo Fisher Scientific, USA) at approximately 2×10⁵ cells per well. In order to pellet cells and remove supernatants, the plates were centrifuged at 1,500 rpm and 4° C. for 3 minutes. For primary staining, cells were resuspended in 100 μl per well of either FACS buffer alone (controls), a 1:60 dilution of the hybridoma supernatant, the primary material leading to the antibodies 3, 16, 22 and 42 of the present disclosure in FACS buffer or 3 μg/ml of the antibodies 16, 22 and 42 of the present disclosure in FACS buffer and incubated on ice for 1 hour. Afterwards, plates were centrifuged at 1,500 rpm and 4° C. for 3 minutes and washed twice with 200 μl per well of FACS buffer. […] Finally, cells were resuspended in 150 μl per well of FACS buffer and analyzed using a BD Accuri™ C6 Plus flow cytometer (Becton Dickinson, Germany).

Binder	binding result [3]	other results
B1	–	binding result [1]: no binding (tested: 3 µg/ml)
B2	–	binding result [2]: no binding (tested: 3 µg/ml)
B3	no binding (tested: 3 µg/ml)	–
B4	no binding (tested: 3 µg/ml)	–
